These results are taken from the RNAGym collection of RNA variant scans (doi:10.1021/acssynbio.7b00057).

B1: Pistol ribozyme (parent)
chain: GGGUCGUUGUUCCAUAAUCGCGUGGAUAUGGCACGCAAGUUUCUACCGGGCACCGUAAAUGUCCGACUGGAGCCGUUCGGGCGGCUAUAAACAGACCUCAGGCCCGAAGCGUGGCGGCACCUGCCGCCGGUGGUAAAAAAGAUCGGAAGAGCACACGUCU

The variants in the data set derive from B1. Nature of the data set: aptazyme ON/OFF ratio, guanine; higher = stronger switching; co-transcriptional cleavage with and without guanine.
As for U7G U8A G9A U10C U11C C13U, the “aptazyme ON/OFF ratio” value was determined as 1.03.
Regarding U7G U8A G9A U10C U11C C13A, the “aptazyme ON/OFF ratio” value is 1.04.
As to U7G U8A G9A U10C U11A C12U C13U, the “aptazyme ON/OFF ratio” value was found to be 1.05.
To U7G U8A G9A U10C U11A C12U C13A belongs 1.09; to U7G U8A G9A U10C U11A C12U C13G, 1.03.
U7G G9U U11A C12G: the “aptazyme ON/OFF ratio” value stood at 1.46.
To U7G G9U U11A C12A belongs 1.56; to U7G G9U U11A C12U, 1.32.
Under U7G G9U U10G U11C C12G C13U stands 1.36; under U7G G9U U10G U11C C12G C13G, 1.07; under U7G G9U U10G U11C C12G C13A, 1.16.
Under U7G U8A G9A U10A U11C C12U stands 1.04.
U7G U8A G9A U10A U11C C12A: the “aptazyme ON/OFF ratio” value was 1.12.
To U7G U8A G9A U10A U11C C12G belongs 1.07; to U7G U8A G9A U10A U11A C12U, 1.18; to U7G U8A G9A U10A U11A C12G, 1.26.
U7G U8A G9A U10A U11A C12A: the “aptazyme ON/OFF ratio” value amounted to 1.18.
Regarding U7G U8A G9A U10C U11A C13G, the “aptazyme ON/OFF ratio” value is 1.07.
Turning to U7G U8A G9A U10C U11A C13U, the “aptazyme ON/OFF ratio” value turned out to be 1.12.
To U7G U8A G9A U10C U11A C13A belongs 1.08; to U7G U8A G9A U10C U11G C12U, 1.28.
To U7G U8A G9A U10C U11G C12A belongs 1.04; to U7G U8A G9A U10C U11G C12G, 1.32.
As for U7G G9U U10C U11C C12A, the “aptazyme ON/OFF ratio” value worked out at 1.37.
Under U7G G9U U10C U11C C12U stands 1.41; under U7G G9U U10C U11C C12G, 1.23.
To U7G U8A G9A U10C C13U belongs 1.13; to U7G U8A G9A U10C C13G, 1.07.
To U7G U8A G9A U10C C13A belongs 1.09; to U7G G9U U11G, 2.13; to U7G G9U U11C, 4.69.
Take U7G G9U U11A: the “aptazyme ON/OFF ratio” value was determined as 1.42.
Under U7G G9U U10C U11A C12U C13A stands 1.33.
As for U7G G9U U10C U11A C12U C13U, the “aptazyme ON/OFF ratio” value stood at 1.33.
To U7G G9U U10C U11A C12U C13G belongs 1.23; to U7G G9U U10G U11C C13G, 1.11; to U7G G9U U10G U11C C13U, 1.1.
Under U7G G9U U10G U11C C13A stands 1.2.
To U7G G9U U10G U11G C12G belongs 1.16; to U7G G9U U10G U11G C12A, 1.11.
Regarding U7G G9U U10G U11G C12U, the “aptazyme ON/OFF ratio” value was found to be 1.29.
In the case of U7G U8A G9A U10C C12U C13G, the “aptazyme ON/OFF ratio” value was 1.07.
To U7G U8A G9A U10C C12U C13U belongs 1.12; to U7G U8A G9A U10C C12U C13A, 1.08; to U7G G9U U11C C12A C13A, 1.42.
To U7G G9U U11C C12A C13U belongs 1.41; to U7G G9U U11C C12A C13G, 1.28.
To U7G G9U U10C U11G C12A C13G belongs 1.13; to U7G G9U U10C U11G C12A C13A, 1.1.
On to U7G G9U U10C U11G C12A C13U, for which the “aptazyme ON/OFF ratio” value turned out to be 1.16.
Turning to U7G G9U U10C U11C C13G, the “aptazyme ON/OFF ratio” value turned out to be 1.07.
In the case of U7G G9U U10C U11C C13A, the “aptazyme ON/OFF ratio” value was found to be 1.05.
Under U7G G9U U10C U11C C13U stands 1.09; under U7G G9U U11C C12G C13U, 1.37; under U7G G9U U11C C12G C13A, 1.22.
Under U7G G9U U11C C12G C13G stands 1.26.
Under U7G U8A G9A U10A U11C C12U C13G stands 1.1; under U7G U8A G9A U10A U11C C12U C13U, 1.11; under U7G U8A G9A U10A U11C C12U C13A, 1.07.
U7G U8A G9A U10A U11A C12G C13A: the “aptazyme ON/OFF ratio” value came out at 1.1.
Take U7G U8A G9A U10A U11A C12G C13U: the “aptazyme ON/OFF ratio” value is 1.14.
Under U7G U8A G9A U10A U11A C12G C13G stands 1.15.
In the case of U7G U8A G9A U10A U11A C12A C13G, the “aptazyme ON/OFF ratio” value worked out at 1.04.
To U7G U8A G9A U10A U11A C12A C13U belongs 1.12; to U7G U8A G9A U10A U11A C12A C13A, 1.09; to U7G U8A G9A U10A C13U, 1.11.
To U7G U8A G9A U10A C13G belongs 1.1; to U7G U8A G9A U10A C13A, 1.19.
Under U7G U8A G9A U10A U11C C12G C13G stands 1.05; under U7G U8A G9A U10A U11C C12G C13U, 1.1; under U7G U8A G9A U10A U11C C12G C13A, 1.11.
Take U7G G9U U11C C13A: the “aptazyme ON/OFF ratio” value worked out at 1.37.
Under U7G G9U U11C C13U stands 1.65; under U7G G9U U11C C13G, 1.05.
Regarding U7G G9U U10C U11C C12U C13G, the “aptazyme ON/OFF ratio” value was 1.23.
To U7G G9U U10C U11C C12U C13A belongs 1.25; to U7G G9U U10C U11C C12U C13U, 1.29; to U7G U8A G9A U10C C12G C13U, 1.28.
Turning to U7G U8A G9A U10C C12G C13A, the “aptazyme ON/OFF ratio” value stood at 1.11.
To U7G U8A G9A U10C C12G C13G belongs 1.11; to U7G G9U U10G U11A C13U, 1.17; to U7G G9U U10G U11A C13A, 1.15.
To U7G G9U U10G U11A C13G belongs 1.16.
For the variant U7G G9U U10G U11G C12A C13U, the “aptazyme ON/OFF ratio” value was 1.19.
